Where a chain is given by its changes, count along the chain named.
T1: IL1RL2 over-expressed on Expi293 cells (UniProt Q9HB29 20-575, limits assumed)
T1 construct: whole, on cells; Target of the flow cytometry assay; MFI ratio is over-expressing cells over parent cells
T1 sequence (looked up): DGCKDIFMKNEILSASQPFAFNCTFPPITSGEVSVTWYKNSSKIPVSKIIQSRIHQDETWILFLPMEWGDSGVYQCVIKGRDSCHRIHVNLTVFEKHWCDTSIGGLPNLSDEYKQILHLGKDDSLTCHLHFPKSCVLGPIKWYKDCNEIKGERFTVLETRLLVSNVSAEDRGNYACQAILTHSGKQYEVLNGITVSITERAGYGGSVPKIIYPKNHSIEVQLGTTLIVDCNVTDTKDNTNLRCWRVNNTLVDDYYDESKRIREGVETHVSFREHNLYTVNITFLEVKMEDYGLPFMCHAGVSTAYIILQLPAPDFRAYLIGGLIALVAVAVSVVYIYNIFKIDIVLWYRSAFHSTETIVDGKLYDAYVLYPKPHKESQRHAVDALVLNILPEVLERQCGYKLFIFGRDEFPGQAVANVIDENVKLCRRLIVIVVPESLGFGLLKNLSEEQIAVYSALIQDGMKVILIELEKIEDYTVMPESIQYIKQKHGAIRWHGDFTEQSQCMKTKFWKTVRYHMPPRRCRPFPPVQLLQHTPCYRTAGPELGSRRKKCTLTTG

T2: CD40L (UniProt P29965 1-261, limits assumed)
T2 construct: whole, on cells; also called cytokine over-expressing Expi293 cells (CD40L)
T2 sequence (looked up): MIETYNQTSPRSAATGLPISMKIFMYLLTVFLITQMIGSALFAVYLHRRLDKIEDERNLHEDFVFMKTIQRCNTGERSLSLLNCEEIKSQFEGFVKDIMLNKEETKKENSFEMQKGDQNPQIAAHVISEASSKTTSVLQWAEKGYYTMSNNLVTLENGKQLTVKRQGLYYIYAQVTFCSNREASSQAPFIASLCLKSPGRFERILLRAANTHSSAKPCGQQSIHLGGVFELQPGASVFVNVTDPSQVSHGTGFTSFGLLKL

B1: IL1RL2-289 (antibody, V domains shown)
VH: EVQLLESGGGLVQPGGSLRLSCAASGFTFTKYAMSWVRQAPGKGLEWVSGISGSGGYTYYADSVKGRFTISRDNSKNTLYLQMNSLRAEDTAVYYCARGAGSPDYWGQGTLVTVSS
VL: DIQMTQSPSSLSASVGDRVTITCRASQNIRSYLNWYQQKPGKAPKLLIYATSNLQRGVPSRFSGSGSGTDFTLTISSLQPEDFATYYCQQSYRAPYIFGGGTKVEIK
notes: IgG2
B2: IL1RL2-295 (antibody, V domains shown)
VH: EVQLLESGGGLVQPGGSLRLSCAASGFSFTTYAMSWVRQAPGKGLEWVSGISGGGGSTYYADSVKGRFTISRDNSKNTLYLQMNSLRAEDTAVYYCAKLVLSNRGGVDYWGQGTLVTVSS
VL: DIQMTQSPSSLSASVGDRVTITCRASQSIRSHLNWYQQKPGKAPKLLIYRASTLQTGVPSRFSGSGSGTDFTLTISSLQPEDFATYYCQQSYSILPVTFGGGTKVEIK
notes: IgG2
B3: IL1RL2-284 (antibody, V domains shown)
VH: EVQLLESGGGLVQPGGSLRLSCAASGFTFTSHAMSWVRQAPGKGLEWVSGISGSGANTYYADSVKGRFTISRDNSKNTLYLQMNSLRAEDTAVYYCARDGIVVVPAANHSYYYYYGMDVWGQGTLVTVSS
VL: DIQMTQSPSSLSASVGDRVTITCRASQSISVHLNWYQQKPGKAPKLLIYIASNLQSGVPSRFSGSGSGTDFTLTISSLQPEDFATYYCQQTYTTPYTFGGGTKVEIK
notes: IgG2
B4: IL1RL2-297 (antibody, V domains shown)
VH: EVQLLESGGGLVQPGGSLRLSCAASGFTFRSHAMSWVRQAPGKGLEWVSALSGSGGRTYYADSVKGRFTISRDNSKNTLYLQMNSLRAEDTAVYYCASSGAGVSDYWGQGTLVTVSS
VL: B3 VL with S30D, V31T, H32N, I50A, S56H, T91S, Y92S, T93S, T94I, Y96L
notes: IgG2
B5: IL1RL2-296 (antibody, V domains shown)
VH: EVQLLESGGGLVQPGGSLRLSCAASGFIFSNFAMSWVRQAPGKGLEWVSGISGSGSSTNYADSVKGRFTISRDNSKNTLYLQMNSLRAEDTAVYYCARGFWSGYYGMDVWGQGTLVTVSS
VL: B3 VL with Q27R, V31T, H32Y, I50A, N53S, L54S, T93A, Y96W
notes: IgG2
B6: IL1RL2-293 (antibody, V domains shown)
VH: EVQLLESGGGLVQPGGSLRLSCAASGFTISNYAMSWVRQAPGKGLEWVSGISGSGSSTFYADSVKGRFTISRDNSKNTLYLQMNSLRAEDTAVYYCAKPDSGQWWGVDQWGQGTLVTVSS
VL: B3 VL with S30G, V31N, H32Y, L33V, I50A, Q55E, S56D, T91S, T93N, Y96L
notes: IgG2
B7: IL1RL2-301 (antibody, V domains shown)
VH: EVQLLESGGGLVQPGGSLRLSCAASGFPLSSYAMSWVRQAPGKGLEWVSLISGSGVSTYYADSVKGRFTISRDNSKNTLYLQMNSLRAEDTAVYYCARGWGAAEEWGQGTLVTVSS
VL: B3 VL with I29V, V31Y, H32Y, I50G, S52V, T91S, Y92H, T94I, G100Q
notes: IgG2
B8: IL1RL2-292 (antibody, V domains shown)
VH: EVQLLESGGGLVQPGGSLRLSCAASGLTFNNYAMSWVRQAPGKGLEWVSGISGSSGNTYYVDSVKGRFTISRDNSKNTLYLQMNSLRAEDTAVYYCARGPNHGMFDAWGQGTLVTVSS
VL: DIQMTQSPSSLSASVGDRVTITCRASQSIGYYLNWYQQKPGKAPKLLIYSATSLQSGVPSRFSGSGSGTDFTLTISSLQPEDFATYYCQHRGTFGGGTKVEIK
notes: IgG2
B9: CD40L-205 (antibody, V domains shown)
VH: EVQLLESGGGLVQPGGSLRLSCAASGFDFSDYEMSWVRQAPGKGLEWVSSITSEGGSTYYADSVKGRFTISRDNSKNTLYLQMNSLRAEDTAVYYCAKPDVLFDYWGQGTLVTVSS
VL: DIQMTQSPSSLSASVGDRVTITCSGDNLGDKYVHWYQQKPGKAPKLLIYGKNIRPSGVPSRFSGSGSGTDFTLTISSLQPEDFANYYCQQTYSIPYTFGQGTKVEIK
B10: CD40L-214 (antibody, V domains shown)
VH: B9 VH with D28T, S30E, Y32T, S35D
VL: DIQMTQSPSSLSASVGDRVTITCSGDNLRGYYASWYQQKPGKAPKLLIYGENSRPSGVPSRFSGSGSGTDFTLTISSLQPEDFATYYCQQSYENPLTFGQGTKVEIK
B11: CD40L-207 (antibody, V domains shown)
VH: B9 VH with D28T, S30E, Y32T, S35D, V101K, L102D
VL: DIQMTQSPSSLSASVGDRVTITCRASQRISSFLNWYQQKPGKAPKLLIYDASNLQSGVPSRFSGSGSGTDFTLTISSLQPEDFATYYCQPSFYFPYAFGQGTKVEIK
B12: CD40L-219 (antibody, V domains shown)
VH: B9 VH with V101Q, L102F
VL: B3 VL with V31N, H32N, I50G, A51T, N53Y, L54R, Q55Y, T93D, Y96L, G100Q
B13: CD40L-233 (antibody, V domains shown)
VH: B9 VH with D28T, S30E, E33Q, S35G, V101K, L102D
VL: DIQMTQSPSSLSASVGDRVTITCRASQFIGRYFNWYQQKPGKAPKLLIYGATILADGVPSRFSGSGSGTDFTLTISSLQPEDFATYYCQQNNNWPTTFGQGTKVEIK
B14: CD40L-218 (antibody, V domains shown)
VH: B9 VH
VL: DIQMTQSPSSLSASVGDRVTITCRTSQSLSSYLHWYQQKPGKAPKLLIYQNDKRPSGVPSRFSGSGSGTDFTLTISSLQPEDFATYYCKQSYDLFTFGQGTKVEIK
B15: CD40L-216 (antibody, V domains shown)
VH: B9 VH with V101Q, L102F
VL: DIQMTQSPSSLSASVGDRVTITCRASQPIAYFLSWYQQKPGKAPKLLIYENNNRPSGVPSRFSGSGSGTDFTLTISSLQPEDFATYYCQPSFLYPYTFGQGTKVEIK
B16: CD40L-208 (antibody, V domains shown)
VH: B9 VH with D28T, S30A, D31S, S35T, V101K, L102D
VL: DIQMTQSPSSLSASVGDRVTITCRASQTIGDYLNWYQQKPGKAPKLLIYLGSELQSGVPSRFSGSGSGTDFTLTINSLQPEDFATYYCQTWDTGESGVFGQGTKVEIK
B17: CD40L-217 (antibody, V domains shown)
VH: B9 VH with D28T, S30A, D31S, S35T, V101K, L102I
VL: DIQMTQSPSSLSASVGDRVTITCKASENVDTYVSWYQQKPGKAPKLLIYDDIDRPSGVPSRFSGSGSGTDFTLTISSLQPEDFATYYCQQSYSSPRTFGQGTKVEIK
B18: CD40L-210 (antibody, V domains shown)
VH: EVQLLESGGGLVQPGGSLRLSCAASGGYNFRDYMHWVRQAPGKGLEWVATISGGGINTYYPDSVKGRFTISRDNSKNTLYLQMNSLRAEDTAVYYCAKDLGQGFDYWGQGTLVTVSS
VL: DIQMTQSPSSLSASVGDRVTITCSGDKLGDKYTSWYQQKPGKVPKLLIYQNDKRPSGVPSRFSGSGSGTDFTLTISSLQPEDFATYYCQQNNNWPTTFGQGTKVEIK
B19: CD40L-220 (antibody, V domains shown)
VH: B18 VH with A49S, T50S, S52T, G53S, G54E, I56G, N57S, P61A
VL: DIQMTQSPSSLSASVGDRVTITCRTSQDIGNYLNWYQQKPGKAPKLLIYGTSYRYSGVPSRFSGSGSGTDFTLTISSLQPEDFATYYCQPSFVFPYTFGQGTKVEIK
B20: CD40L-211 (antibody, V domains shown)
VH: EVQLLESGGGLVQPGGSLRLSCAASGGYNFRDYMHWVRQAPGKGLEWVAEIRNKANNHATKYADSVKGRFTISRDNSKNTLYLQMNSLRAEDTAVYYCAKNLGQGFDYWGQGTLVTVSS
VL: DIQMTQSPSSLSASVGDRVTITCRASQTIGDYLNWYQQKPGKAPKLLIYETSKLASGVPSRFSGSGSGTDFTLTISSLQPEDFATYYCQQSYSTPTFGQGTKVEIK
B21: CD40L-239 (antibody, V domains shown)
VH: EVQLLESGGGLVQPGGSLRLSCAASGFIFQWYDMGWVRQAPGKGLEWVSSINDRGDQTYYADSVKGRFTISRDNSKNTLYLQMNSLRAEDTAVYYCARVAFSGSFDYWGQGTLVTVSS
VL: DIQMTQSPSSLSASVGDRVTITCRASQSILSYLNWYQQKPGKAPKLLIYFTSTLAAGVPSRFSGSGSGTDFTLTISSLQPEDFATYYCQQSYSSAPTFGQGTKVEIK

Target: T1, IL1RL2 over-expressed on Expi293 cells
Assay: flow cytometry, over-expressing Expi293 vs parent cells, 100 nM antibody;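 note: ratio is mean fluorescence intensity on over-expressing Expi293 cells divided by that measured on parental Expi293 cells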
Protocol: (§1) All incubations and washes were in buffer containing PBS+1% BSA. MFI Ratio is defined by the mean fluorescence intensity (MFI) of the cytokine over-expressing Expi293 cell over the Expi293 parent cell. […] EC50 was calculated in GraphPad Prism.

First: B1
Second: B2
The “100 nM FACS (MFI Ratio)” value of the first is higher: 5.31 for the first, 3.07 for the second.

First: B3
Second: B4
The “100 nM FACS (MFI Ratio)” value of the first is higher: 8.71 for the first, 7.44 for the second.

Going from B5 to B6, the “100 nM FACS (MFI Ratio)” value falls from 19.9 to 10.2.

B7 and B8 are the same in “100 nM FACS (MFI Ratio)” value: 11.7 for the first, 11.7 for the second.

Target: T2, CD40L
Assay: flow cytometry, 100 nM IgG, CD40L over-expressing Expi293 cells over parent Expi293 cells
Protocol: as §1

First: B9
Second: B10
The “100 nM FACS (MFI Ratio)” value of the first is lower: 6.6 MFI ratio for the first, 7.3 MFI ratio for the second.

Going from B11 to B12, the “100 nM FACS (MFI Ratio)” value falls from 11.9 MFI ratio to 2.1 MFI ratio.

First: B13
Second: B14
The “100 nM FACS (MFI Ratio)” value of the first is lower: 1.8 MFI ratio for the first, 5.1 MFI ratio for the second.

First: B15
Second: B16
The “100 nM FACS (MFI Ratio)” value of the first is higher: 22.4 MFI ratio for the first, 1.6 MFI ratio for the second.

Going from B17 to B18, the “100 nM FACS (MFI Ratio)” value falls from 7.7 MFI ratio to 2.2 MFI ratio.

Going from B19 to B20, the “100 nM FACS (MFI Ratio)” value rises from 4.3 MFI ratio to 12.1 MFI ratio.

For B21, the “100 nM FACS (MFI Ratio)” value was 4.2 MFI ratio.

— patent US20230265179A1 (TWIST BIOSCIENCE, published 2023)
